Results on four molecules are retold here after patent US20240150449A1.

The target in experiment [1] is recombinant in vitro phosphorylated full-length TDP-43 (TDP-43-MBP phosphorylated with casein kinase 1 delta) (human) (UniProt Q13148). As to the kind of experiment: SPR Biacore 8K, 25 C, in vitro phosphorylated TDP-43 amine-coupled on CM5, IgG as analyte (avidity). In general terms: SPR reads the build-up and loss of mass on a sensor chip optically.
Experiment [2] shares this target. As to the kind of experiment: SPR Biacore 8K, 25 C, in vitro phosphorylated TDP-43 amine-coupled on CM5, Fab as analyte.

By koff is commonly meant a measure of how fast the partners let go of each other. What is called kon is the second-order rate constant of association.

B1: antibody 31F3 (human IgG) (antibody, V domains shown)
VH: QVQLEQSGAEVKRPGASVKVSCKASGYTFTGYYLHWVRQAPGQGLEWMGRINPGSGGTKYAQKFQGRVSMTRDTSISTAYMEVNRLRPDDTAVYYCARYQVYGERGRYMDVWGKGTTVTVSS
VL: QSALTQPASVSGSPGQSITISCTGTSSDVGTYDLVSWYQQHPGKAPKLIIYEDNKRPSGLSNRFSGSKSGNTASLTISGLQADDEADYYCCSYAAISTLIFGGGTKVTVL
In the case of B1, in experiment [1], the Kd is 0.01 nM, the koff was found to be 0.0003 s⁻¹ and the on-rate constant (kon) was determined as 2.5e+07 M⁻¹ s⁻¹.

B2: 30E1 Fab (Fab, V domains shown)
VH: QVQLVQSGAEVKKPGASVKVSCKTSGYTFTDYYLHWVRQAPGQGLEWMGRINPNSGNTNYAQKFQGRVSVTRDTSISTAYMELSRLSSDDTAVYFCARVKIVVLRSTPTLYYFDYWGQGTLVTVSS
VL: QSALTQPASVSGSPGQSITISCTGTSSDVGTYDLVSWYQQHPGKAPKVMIYEGSKRPSGVSNRFSGSKSGNTASLTISGLQAEDEADYYCCSYAGTSTLVFGGGTKVTVL
Turning to B2, in experiment [2], the Kd is 34 nM, the koff stood at 0.11 s⁻¹ and the kon came out at 3.1e+06 M⁻¹ s⁻¹.

B3: 31F3 Fab (Fab, V domains shown)
VH: QVQLEQSGAEVKRPGASVKVSCKASGYTFTGYYLHWVRQAPGQGLEWMGRINPGSGGTKYAQKFQGRVSMTRDTSISTAYMEVNRLRPDDTAVYYCARYQVYGERGRYMDVWGKGTTVTVSS
VL: QSALTQPASVSGSPGQSITISCTGTSSDVGTYDLVSWYQQHPGKAPKLIIYEDNKRPSGLSNRFSGSKSGNTASLTISGLQADDEADYYCCSYAAISTLIFGGGTKVTVL
As to B3, in experiment [2], the Kd turned out to be 2.5 nM, the koff is 0.017 s⁻¹ and the kon is 6.8e+06 M⁻¹ s⁻¹.

B4: antibody 30E1 (human IgG) (antibody, V domains shown)
VH: QVQLVQSGAEVKKPGASVKVSCKTSGYTFTDYYLHWVRQAPGQGLEWMGRINPNSGNTNYAQKFQGRVSVTRDTSISTAYMELSRLSSDDTAVYFCARVKIVVLRSTPTLYYFDYWGQGTLVTVSS
VL: QSALTQPASVSGSPGQSITISCTGTSSDVGTYDLVSWYQQHPGKAPKVMIYEGSKRPSGVSNRFSGSKSGNTASLTISGLQAEDEADYYCCSYAGTSTLVFGGGTKVTVL
With B4, in experiment [1], the Kd worked out at 0.02 nM, the koff came to 0.00061 s⁻¹ and the kon came out at 3e+07 M⁻¹ s⁻¹.
